Source: the Human Domainome abundance scans (Beltran et al. 2025)
± gives the uncertainty stated by the source.

B1: SH3 and PX domain-containing protein 2B, residues 155 to 209; numbered along this chain, A1X283 (parent)
chain: EQYVVVANYQKQESSEISLSVGQVVDIIEKNESGWWFVSTAEEQGWVPATCLEGQ

Variants of: B1
Experiment: abundance fitness (aPCA) (normalised: wild type 0, dead -1); higher = more abundant; growth selection in yeast, the domain comes from the species named
Settings: Homo sapiens

Abundance fitness, by site and new letter:
W36: K -0.889 ± 0.27 | F 0.083 ± 0.1 | N -0.367 ± 0.17 | R -0.462 ± 0.084 | I -0.139 ± 0.16 | A -0.104 ± 0.084
E16: V -0.92 ± 0.093 | D -0.211 ± 0.15 | N -0.2 ± 0.14 | Y -0.853 ± 0.3 | P -0.667 ± 0.17 | T -0.178 ± 0.1 | S -0.177 ± 0.091 | L -0.805 ± 0.12
V47: T -0.552 ± 0.13 | K -0.929 ± 0.25 | F -0.229 ± 0.097 | Y -0.45 ± 0.13 | H -0.967 ± 0.27 | M -0.453 ± 0.15
G22: L -0.921 ± 0.11 | C -0.638 ± 0.097 | K -0.789 ± 0.14 | A -0.5 ± 0.078 | H -0.581 ± 0.19 | M -0.617 ± 0.11 | Q -0.512 ± 0.16
V21: N -0.342 ± 0.12 | D -0.593 ± 0.12 | W -0.566 ± 0.13 | T -0.061 ± 0.14
G34: N -0.538 ± 0.22 | H -0.327 ± 0.14 | R -0.306 ± 0.07 | D -0.125 ± 0.091 | L -0.423 ± 0.078 | T -0.393 ± 0.092 | P -0.249 ± 0.1
S18: R -0.646 ± 0.31
S15: P -0.121 ± 0.13 | N -0.061 ± 0.23 | C -0.063 ± 0.1 | G -0.073 ± 0.073 | E -0.172 ± 0.11 | M -0.18 ± 0.12 | F -0.244 ± 0.093
E32: V 0.038 ± 0.082 | I -0.066 ± 0.19 | D -0.047 ± 0.09 | K -0.326 ± 0.13 | M -0.188 ± 0.11 | G 0.001 ± 0.061
E43: M -0.117 ± 0.13 | R -0.111 ± 0.067 | N 0.017 ± 0.14 | V -0.093 ± 0.073 | Y -0.221 ± 0.16 | S 0.033 ± 0.098
E13: K -0.015 ± 0.15 | D -0.111 ± 0.14 | H -0.154 ± 0.11 | F -0.229 ± 0.13 | T -0.104 ± 0.1 | P -0.598 ± 0.12 | I -0.037 ± 0.12 | Y -0.248 ± 0.11 | L -0.178 ± 0.071 | W -0.467 ± 0.17
V25: T -0.513 ± 0.15 | I -0.317 ± 0.17 | H -0.656 ± 0.18 | E -0.752 ± 0.12 | L -0.378 ± 0.083 | F -0.964 ± 0.42 | G -0.878 ± 0.098 | S -0.95 ± 0.17 | C -0.393 ± 0.21
V4: L 0.075 ± 0.065 | T 0.193 ± 0.18 | W -0.271 ± 0.12 | R 0.077 ± 0.096 | D -0.148 ± 0.1 | M -0.463 ± 0.26 | G -0.265 ± 0.076
S14: W -0.171 ± 0.1 | I 0.014 ± 0.2 | K 0.026 ± 0.11 | C -0.018 ± 0.1 | R -0.073 ± 0.068 | Q -0.347 ± 0.2 | P -0.005 ± 0.1 | H -0.125 ± 0.14
I27: N -0.899 ± 0.19 | T -0.183 ± 0.092 | Q -0.609 ± 0.19 | K -0.617 ± 0.21 | C -0.001 ± 0.093 | F -0.145 ± 0.19
A7: R -0.066 ± 0.075 | Y 0.025 ± 0.12 | E -0.088 ± 0.1 | I -0.32 ± 0.12 | Q -0.106 ± 0.11 | G -0.098 ± 0.058 | N -0.09 ± 0.15 | H -0.394 ± 0.2
T40: L -0.031 ± 0.071 | P -0.699 ± 0.14
G45: L -0.444 ± 0.085 | F -0.744 ± 0.14 | V -0.7 ± 0.088 | W -0.919 ± 0.19 | E -1.21 ± 0.2 | C -0.779 ± 0.14 | H -0.815 ± 0.35 | K -0.547 ± 0.15 | A -0.604 ± 0.11 | R -0.723 ± 0.085 | I -0.643 ± 0.17
Q23: F -0.741 ± 0.16 | H -0.136 ± 0.13 | G -0.263 ± 0.068 | T -0.085 ± 0.12 | N -0.037 ± 0.18 | L -0.288 ± 0.085 | M -0.039 ± 0.12
S20: G -0.239 ± 0.079 | L 0.015 ± 0.077 | H -0.01 ± 0.13 | T -0.055 ± 0.11 | D -0.317 ± 0.16 | C -0.209 ± 0.11 | A -0.13 ± 0.098
F37: Q 0.036 ± 0.13 | Y 0.061 ± 0.17 | C -0.127 ± 0.15 | L 0.03 ± 0.087 | R 0.06 ± 0.07 | A -0.174 ± 0.081
K30: D -0.767 ± 0.18 | T -0.008 ± 0.15 | E -0.17 ± 0.14 | I -0.276 ± 0.14 | Q -0.027 ± 0.15
Q55: H -0.004 ± 0.45 | E -0.341 ± 0.44
Y3: Q -0.17 ± 0.13 | F -0.053 ± 0.13 | A 0.106 ± 0.095 | V -0.073 ± 0.081 | H -0.537 ± 0.17
P48: I -0.956 ± 0.26 | A -0.626 ± 0.11 | T -0.888 ± 0.16 | H -0.455 ± 0.11 | K -0.334 ± 0.1
Q2: S -0.058 ± 0.11 | R -0.167 ± 0.12 | F -0.185 ± 0.47 | T -0.148 ± 0.12 | G -0.082 ± 0.081 | V 0.012 ± 0.11 | W -0.415 ± 0.1
E42: C -0.064 ± 0.092 | Q 0.019 ± 0.12 | S 0.07 ± 0.071 | K -0.057 ± 0.12
